# Biological target: Tetanus neurotoxin (TeNT) (Clostridium tetani strain Y-IV-3 (WS …, UniProt P04958))
# Experiment: SPR
# Tetanus neurotoxin (TeNT) (Clostridium tetani strain Y-IV-3, sequence (P04958 1-457, chain 1 of 2): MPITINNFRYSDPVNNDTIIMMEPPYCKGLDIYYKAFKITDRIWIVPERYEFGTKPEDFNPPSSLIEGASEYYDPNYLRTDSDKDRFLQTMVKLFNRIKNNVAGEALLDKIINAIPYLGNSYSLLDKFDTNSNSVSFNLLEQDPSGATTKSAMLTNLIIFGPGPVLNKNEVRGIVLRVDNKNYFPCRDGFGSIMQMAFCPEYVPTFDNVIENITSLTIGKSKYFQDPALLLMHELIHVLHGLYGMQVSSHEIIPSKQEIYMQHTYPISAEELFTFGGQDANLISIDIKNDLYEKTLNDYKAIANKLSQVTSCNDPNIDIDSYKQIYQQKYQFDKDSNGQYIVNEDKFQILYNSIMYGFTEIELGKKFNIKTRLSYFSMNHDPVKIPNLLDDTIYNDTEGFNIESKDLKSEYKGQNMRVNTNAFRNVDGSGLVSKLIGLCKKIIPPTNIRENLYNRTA
# Tetanus neurotoxin (TeNT) (Clostridium tetani strain Y-IV-3, sequence (P04958 458-1315, chain 2 of 2): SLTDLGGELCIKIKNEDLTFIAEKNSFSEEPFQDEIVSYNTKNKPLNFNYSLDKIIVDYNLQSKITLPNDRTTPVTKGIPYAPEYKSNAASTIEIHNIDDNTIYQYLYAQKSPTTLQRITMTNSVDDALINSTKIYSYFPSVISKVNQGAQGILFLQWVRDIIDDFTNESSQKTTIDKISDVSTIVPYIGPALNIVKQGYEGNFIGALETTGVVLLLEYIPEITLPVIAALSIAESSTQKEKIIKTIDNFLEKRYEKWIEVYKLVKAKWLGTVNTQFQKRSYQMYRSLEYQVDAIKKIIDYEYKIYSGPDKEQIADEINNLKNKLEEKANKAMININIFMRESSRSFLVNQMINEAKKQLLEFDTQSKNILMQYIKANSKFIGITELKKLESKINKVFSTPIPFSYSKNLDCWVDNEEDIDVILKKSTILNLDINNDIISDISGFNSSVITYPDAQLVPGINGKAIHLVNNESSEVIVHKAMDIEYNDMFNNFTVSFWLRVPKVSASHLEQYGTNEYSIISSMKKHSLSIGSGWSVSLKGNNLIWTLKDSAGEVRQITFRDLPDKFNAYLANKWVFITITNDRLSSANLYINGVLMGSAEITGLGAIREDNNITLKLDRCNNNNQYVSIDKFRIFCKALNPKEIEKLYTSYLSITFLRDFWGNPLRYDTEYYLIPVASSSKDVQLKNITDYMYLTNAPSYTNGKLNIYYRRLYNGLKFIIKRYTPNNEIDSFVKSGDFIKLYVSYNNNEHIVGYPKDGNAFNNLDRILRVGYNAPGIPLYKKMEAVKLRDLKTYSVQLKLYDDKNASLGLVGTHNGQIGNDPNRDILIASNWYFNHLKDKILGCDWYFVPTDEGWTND
row,Binder,Kd [nM]
1,"TT104-Fab (Fab, V domains shown) VH: QLQLQESGPGLVRPSETLSLTCSVSDDSMGSSTYYWAWIRQPPGKGLEWIGNVYYNGVTYYNSSLESRLTLSIDPSKNQFSLILSSVTAADTAVYYCARQADNWFDPWGQGTLVTVSS VL: IMMTQSPATLSVSPGERATLSCRASQSVGSDLAWYQQKPGQAPRLLIYGASYRATGIPARFSGGGSGTEFTLTISSMQSEDFAVYYCQQYYNWPPYTFGQGTKVEIK",0.0067
2,"TT110-Fab (Fab, V domains shown) VH: QVQLMQSGAEVQKPGASVKVSCQASGFTLNNYYIHWLRQAPGQGFEWMGIFNPSSGTRTYAQKFQGRISMTADASTTTLYMELSGLTSEDAGVYFCARIGGSTYGRLMTYYFDHWGQGTVVAVSS VL: VLTQGPVTLSVSPGGRGTLSCRASRSISTTLAWYQQKPGQAPRLLIYGASTRATGIPARFTGSGSGTEFTLTISSLQSEDFAVYYCQQYNDWPVTFGQGTQVEVK",3
